Measurements as given in PMC8025907.

Columns and labels:
[1] = biological target: T1, His6-BfmR (Pseudomonas aeruginosa MPAO1) (UniProt Q9HWS7); experiment: DNase I footprinting; settings: 10 mM Tris-Cl pH 8.0, 1 mM DTT, 10% glycerol, 5 mM MgCl2, 10 mM KCl, 50 mM acetyl phosphate; EMSA 30 min at 37 C; footprinting 30 min at room temperature
T1 sequence: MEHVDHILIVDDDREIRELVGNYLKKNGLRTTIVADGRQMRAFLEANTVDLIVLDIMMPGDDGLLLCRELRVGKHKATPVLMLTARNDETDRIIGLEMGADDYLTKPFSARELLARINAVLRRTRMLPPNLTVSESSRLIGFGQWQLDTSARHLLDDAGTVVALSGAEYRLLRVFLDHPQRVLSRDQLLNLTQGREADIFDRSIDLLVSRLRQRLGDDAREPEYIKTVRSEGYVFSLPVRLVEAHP

[2] = biological target: T1, His6-BfmR (Pseudomonas aeruginosa MPAO1); experiment: EMSA; settings: 10 mM Tris-Cl pH 8.0, 1 mM DTT, 10% glycerol, 5 mM MgCl2, 10 mM KCl, 50 mM acetyl phosphate; EMSA 30 min at 37 C; footprinting 30 min at room temperature

Sequence: GAATATCCGAAAGCCAGACGGTTATCGGCAGAAACTCTTGGTTTTCATTGCAGTCATGCAATCTTCGCAAGGTTGCCGCAATATATGAAACAAACTGTTACATCTGTCGCCCGGACCTGATGCCTCTAGGCCTGCGCCCTTATCCGACGGCCTCATCCAGGCGCTATCCGGCTGCCTGTCACAAAAGCTTTCGCGCTTTGCAGTCTCGCTGTCACAACCCATCCAGATGATCCCCCTCCAGCAGCGCCGGCCGGCGACAGAACCGGCCGTTTCCGCGCTGCTCAAGA (double strand) [oprP promoter]
- binding [1]: binds
- binding [2]: binds
